This series deals with the molecule itself. Briefly: native gel or EMSA.

B1: FadD13 mutant A302G, N-terminal 6x histidine tagged (enzyme)
chain: MKNIGWMLRQRATVSPRLQAYVEPSTDVRMTYAQMNALANRCADVLTALGIAKGDRVALLMPNSVEFCCLFYGAAKLGAVAVPINTRLAAPEVSFILSDSGSKVVIYGAPSAPVIDAIRAQADPPGTVTDWIGADSLAERLRSAAADEPAVECGGDDNLFIMYTSGTTGHPKGVVHTHESVHSAASSWASTIDVRYRDRLLLPLPMFHVAALTTVIFSAMRGVTLISMPQFDATKVWSLIVEERVCIGGAVPAILNFMRQVPEFAELDAPDFRYFITGGAPMPEALIKIYAAKNIEVVQGYGLTESCGGGTLLLSEDALRKAGSAGRATMFTDVAVRGDDGVIREHGEGEVVIKSDILLKEYWNRPEATRDAFDNGWFRTGDIGEIDDEGYLYIKDRLKDMIISGGENVYPAEIESVIIGVPGVSEVAVIGLPDEKWGEIAAAIVVADQNEVSEQQIVEYCGTRLARYKLPKKVIFAEAIPRNPTGKILKTVLREQYSATVPK
notes: not shown: His6, N-terminal, kept
B1: the “stoichiometry N” value was 2.

B2: FadD13 mutant D382A, N-terminal 6x histidine tagged (enzyme)
chain: MKNIGWMLRQRATVSPRLQAYVEPSTDVRMTYAQMNALANRCADVLTALGIAKGDRVALLMPNSVEFCCLFYGAAKLGAVAVPINTRLAAPEVSFILSDSGSKVVIYGAPSAPVIDAIRAQADPPGTVTDWIGADSLAERLRSAAADEPAVECGGDDNLFIMYTSGTTGHPKGVVHTHESVHSAASSWASTIDVRYRDRLLLPLPMFHVAALTTVIFSAMRGVTLISMPQFDATKVWSLIVEERVCIGGAVPAILNFMRQVPEFAELDAPDFRYFITGGAPMPEALIKIYAAKNIEVVQGYALTESCGGGTLLLSEDALRKAGSAGRATMFTDVAVRGDDGVIREHGEGEVVIKSDILLKEYWNRPEATRDAFDNGWFRTGAIGEIDDEGYLYIKDRLKDMIISGGENVYPAEIESVIIGVPGVSEVAVIGLPDEKWGEIAAAIVVADQNEVSEQQIVEYCGTRLARYKLPKKVIFAEAIPRNPTGKILKTVLREQYSATVPK
notes: as for B1
Regarding B2, the binding result is reported as “binds”.

Broadly, the stoichiometry N is a count of units in the complex or per binding partner.
